17 molecules from PMC6480920, “A Combined ELONA-(RT)qPCR Approach for Characterizing DNA and RNA Aptamers Selected against PCBP-2” can be followed below.

The target in series [1] is T1, PCBP-2 (poly(C)-binding protein 2) (UniProt Q15366 1-365). The series is described as follows: ELONA-qPCR; 6 mM Mg2+; ELONA: 100 mM HEPES pH 7.4, 100 mM NaCl, 6 mM MgCl2, 37 °C, 60 min, PCBP-2 (10 pmol) immobilized on Cu2+ plates; EMSA: 40 mM Tris-HCl pH 7.5, 250 mM NaCl, 0.1%. The following applies: protein: recombinant; tags: N-terminal 6xHis.
T1 sequence (Q15366 whole entry): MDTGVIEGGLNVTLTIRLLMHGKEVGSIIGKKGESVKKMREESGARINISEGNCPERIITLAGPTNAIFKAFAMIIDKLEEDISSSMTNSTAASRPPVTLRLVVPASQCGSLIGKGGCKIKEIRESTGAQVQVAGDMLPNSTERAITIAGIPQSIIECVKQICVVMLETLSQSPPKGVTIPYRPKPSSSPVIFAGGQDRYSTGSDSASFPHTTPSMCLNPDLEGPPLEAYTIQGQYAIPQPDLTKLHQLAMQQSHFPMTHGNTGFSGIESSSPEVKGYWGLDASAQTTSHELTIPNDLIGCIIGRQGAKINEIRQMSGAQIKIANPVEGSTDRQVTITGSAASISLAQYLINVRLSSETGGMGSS
Series [2] deals with T1, PCBP-2 (poly(C)-binding protein 2). The series is described as follows: ELONA-RTqPCR; Kd in range 24.1-276.5 nM, value in figure; highest RNA Bmax; ELONA: 100 mM HEPES pH 7.4, 100 mM NaCl, 6 mM MgCl2, 37 °C, 60 min, PCBP-2 (10 pmol) immobilized on Cu2+ plates; EMSA: 40 mM Tris-HCl pH 7.5, 250 mM NaCl, 0.1%. The following applies: protein: recombinant; tags: N-terminal 6xHis. On the technique in general: Mobility shift assays separate free from complexed probe on a gel.

For series [3] the target is unchanged. Briefly: EMSA; 0.1-27.1 nM protein; two retarded complexes; ELONA: 100 mM HEPES pH 7.4, 100 mM NaCl, 6 mM MgCl2, 37 °C, 60 min, PCBP-2 (10 pmol) immobilized on Cu2+ plates; EMSA: 40 mM Tris-HCl pH 7.5, 250 mM NaCl, 0.1%. The following applies: protein: recombinant; tags: N-terminal 6xHis; label: 32P-CTP uniform.
Series [4] shares this target. The series is described as follows: ELONA-RTqPCR; 6 mM Mg2+; ELONA: 100 mM HEPES pH 7.4, 100 mM NaCl, 6 mM MgCl2, 37 °C, 60 min, PCBP-2 (10 pmol) immobilized on Cu2+ plates; EMSA: 40 mM Tris-HCl pH 7.5, 250 mM NaCl, 0.1%. The following applies: protein: recombinant; tags: N-terminal 6xHis.
For series [5] the target is unchanged. Briefly: ELONA-qPCR; Kd in range 8.4-89.9 nM, value in figure; ELONA: 100 mM HEPES pH 7.4, 100 mM NaCl, 6 mM MgCl2, 37 °C, 60 min, PCBP-2 (10 pmol) immobilized on Cu2+ plates; EMSA: 40 mM Tris-HCl pH 7.5, 250 mM NaCl, 0.1%. The following applies: protein: recombinant; tags: N-terminal 6xHis.
The target is the same in series [6]. Briefly: ELONA-RTqPCR; Kd in range 24.1-276.5 nM, value in figure; ELONA: 100 mM HEPES pH 7.4, 100 mM NaCl, 6 mM MgCl2, 37 °C, 60 min, PCBP-2 (10 pmol) immobilized on Cu2+ plates; EMSA: 40 mM Tris-HCl pH 7.5, 250 mM NaCl, 0.1%. The following applies: protein: recombinant; tags: N-terminal 6xHis.
The target is the same in series [7]. Briefly: ELONA-qPCR; Kd in range 8.4-89.9 nM, value in figure; highest DNA Bmax; ELONA: 100 mM HEPES pH 7.4, 100 mM NaCl, 6 mM MgCl2, 37 °C, 60 min, PCBP-2 (10 pmol) immobilized on Cu2+ plates; EMSA: 40 mM Tris-HCl pH 7.5, 250 mM NaCl, 0.1%. The following applies: protein: recombinant; tags: N-terminal 6xHis.

B1: 05DS10-21 (ssDNA)
DNA: GCGGATCCAGACTGGTGTGGAGGTTAGCCGAAACACGTATACGCGTATTTATCCTCGGGCCCTAAAGACAAGCTTC
Broadly, the Kd is the constant that tells how readily two partners part at equilibrium. In the case of B1, the Kd in series [1] amounted to 8.4 nM.

B2: 05RS10-32 (ssRNA)
RNA: GGGGCGGAUCCAGACUGGUGUCUUCCUGCUUGUGUUAUUUUCUAUUGUCGUGCGUGUUCGGGCCCUAAAGACAAGCUUC
Turning to B2, in series [2], the binding result was “binds”.

B3: 05RS10-32-32P (ssRNA)
RNA: GGGGCGGAUCCAGACUGGUGUCUUCCUGCUUGUGUUAUUUUCUAUUGUCGUGCGUGUUCGGGCCCUAAAGACAAGCUUC
Take B3: the binding result in series [3] is on record as “binds”.

B4: 05RS10-09 (ssRNA)
RNA: GGGGCGGAUCCAGACUGGUGUACACGGUGUUUAGUAGUUUAAUGAAUCUUUUAGUUCUUGGGCCCUAAAGACAAGCUUC
In the case of B4, the Kd in series [4] was determined as 24.1 nM.

B5: 05DS10-18 (ssDNA)
DNA: GCGGATCCAGACTGGTGTCCTATCTATAATTTTGCAGTCCACGTTTCTCTTGTGTGTGCCCTAAAGACAAGCTTC
On to B5, for which, in series [5], the binding result was “binds”.

B6: 05RS10-18 (ssRNA)
RNA: GGGGCGGAUCCAGACUGGUGUUUAAUUAUGUAAGUAAAUUGUUUUUUGACUCUCGCAUUGGGCCCUAAAGACAAGCUUC
Take B6: the binding result in series [6] was “binds”.

B7: 05RS10-30 (ssRNA)
RNA: GGGGCGGAUCCAGACUGGUGUUUCCGCAAAGAGUGGUCUUUGUUAAUGUCAGGUUUCUUCGGCCCUAAAGACAAGCUUC
As to B7, in series [6], the binding result is “binds”.

B8: 05RS10-11 (ssRNA)
RNA: GGGGCGGAUCCAGACUGGUGUGAUCAUAUUAAUAAGACGCUUCCAGGUACGUCGCUGUUGGGCCCUAAAGACAAGCUUC
On to B8, for which the binding result in series [6] was “binds”.

B9: 05DS10-22 (ssDNA)
DNA: GCGGATCCAGACTGGTGTCAATGGTACTCTTCATTGTAGTCGCTTTGTTTATTAGCCGGCCCTAAAGACAAGCTTC
As for B9, the binding result in series [5] is reported as “binds”.

B10: 05RS10-04 (ssRNA)
RNA: GGGGCGGAUCCAGACUGGUGUCAUUUAGCAAAAACACUUGUAUAAUUCAAGUCGAUGUUGGGCCCUAAAGACAAGCUUC
With B10, the binding result in series [6] is “binds”.

B11: 05RS10-19 (ssRNA)
RNA: GGGGCGGAUCCAGACUGGUGUAAUCGAUCUUGCAUGCUAUUCGUCAAUCAACUCUUGCCGGCCCUAAAGACAAGCUUC
Take B11: the binding result in series [6] is recorded as “binds”.

B12: 05DS10-12 (ssDNA)
DNA: GCGGATCCAGACTGGTGTGCAGGTATGCCGGATCATGTCGTGAAAGTATCCATTTCTCGCCCTAAAGACAAGCTTC
On to B12, for which the binding result in series [5] is reported as “binds”.

B13: 05RS10-34 (ssRNA)
RNA: GGGGCGGAUCCAGACUGGUGUGAACACAGACGAGAACGUUGCAUAAAACCGCUUUUUUGGGCCCUAAAGACAAGCUUC
Regarding B13, in series [6], the binding result is recorded as “binds”.

B14: 05DS10-26 (ssDNA)
DNA: GCGGATCCAGACTGGTGTGGGAATGTTGTTTATGTATTTGTTCTGAGCTCTACCTTTGCCCTAAAGACAAGCTTC
Take B14: the binding result in series [5] is reported as “binds”.

B15: 05DS10-01 (ssDNA)
DNA: GCGGATCCAGACTGGTGTGCACAGCACATGCATTACTGCGGTAATCCGTGTCCTTTGTGCCCTAAAGACAAGCTTC
For the molecule B15, the binding result in series [5] is “binds”.

B16: 05DS10-02 (= 05DS10-03) (ssDNA)
DNA: GCGGATCCAGACTGGTGTACTGGGCTAGTTGCCTCTGCAGATTAGATGATGACAGTGGCCCTAAAGACAAGCTTC
On to B16, for which the binding result in series [5] was “binds”.

B17: 05DS10-05 (ssDNA)
DNA: GCGGATCCAGACTGGTGTACCTGTTAGCAAGAGTTTATTATGTAAAGATATCCGTTGGGCCCTAAAGACAAGCTTC
As for B17, the binding result in series [7] is “binds”.
